Results: article PMC8592984 (2021)
Read-outs that look alike come from different tables or passages of the source.

B1: human PQBP1(1–94) including WWD (domain or fragment)
chain: MPLPVALQTRLAKRGILKHLEPEPEEEIIAEDYDDDPVDYEATRLEGLPPSWYKVFDPSCGLPYYWNADTDLVSWLSPHDPNSVVTKSAKKLRS
B2: human PQBP1 full-length form (PQBP1-FL) (natural protein)
chain: MPLPVALQTRLAKRGILKHLEPEPEEEIIAEDYDDDPVDYEATRLEGLPPSWYKVFDPSCGLPYYWNADTDLVSWLSPHDPNSVVTKSAKKLRSSNADAEEKLDRSHDKSDRGHDKSDRSHEKLDRGHDKSDRGHDKSDRDRERGYDKVDRERERDRERDRDRGYDKADREEGKERRHHRREELAPYPKSKKAVSRKDEELDPMDPSSYSDAPRGTWSTGLPKRNEAKTGADTTAAGPLFQQRPYPSPGAVLRANAEASRTKQQD

Experiments:
Assay in all cases: SPR
Tau 441 P301S = Tau 441 P301S (human, UniProt P10636-8 1-441, P301S)
Sequence of Tau 441 P301S (P10636 other isoform, or with tags, fused parts or gaps P301S | P301S): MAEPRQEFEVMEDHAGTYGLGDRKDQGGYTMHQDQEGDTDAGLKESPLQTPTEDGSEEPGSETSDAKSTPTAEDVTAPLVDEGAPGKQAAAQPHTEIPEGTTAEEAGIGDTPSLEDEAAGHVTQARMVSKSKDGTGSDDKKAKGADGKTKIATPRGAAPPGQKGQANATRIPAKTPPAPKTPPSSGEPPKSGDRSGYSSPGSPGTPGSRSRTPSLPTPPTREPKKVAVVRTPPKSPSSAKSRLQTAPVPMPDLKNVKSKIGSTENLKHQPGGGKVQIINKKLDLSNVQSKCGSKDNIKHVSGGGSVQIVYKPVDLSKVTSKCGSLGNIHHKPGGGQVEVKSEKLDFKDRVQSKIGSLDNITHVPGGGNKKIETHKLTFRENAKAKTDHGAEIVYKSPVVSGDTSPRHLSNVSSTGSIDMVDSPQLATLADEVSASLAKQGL

[1] = target: T1, human Tau 441 full-length protein (4R tau), SPR construct (human, UniProt P10636-8 1-441)
T1 sequence (P10636 other isoform, or with tags, fused parts or gaps): as the sequence (P10636 other isoform, or with tags, fused parts or gaps P301S | P301S) above, with S301P counted along it

Tau 410 P216A = Tau 410 P216A (human, UniProt P10636-5 1-410, P216A)
Sequence of Tau 410 P216A (P10636 other isoform, or with tags, fused parts or gaps P216A | P216A): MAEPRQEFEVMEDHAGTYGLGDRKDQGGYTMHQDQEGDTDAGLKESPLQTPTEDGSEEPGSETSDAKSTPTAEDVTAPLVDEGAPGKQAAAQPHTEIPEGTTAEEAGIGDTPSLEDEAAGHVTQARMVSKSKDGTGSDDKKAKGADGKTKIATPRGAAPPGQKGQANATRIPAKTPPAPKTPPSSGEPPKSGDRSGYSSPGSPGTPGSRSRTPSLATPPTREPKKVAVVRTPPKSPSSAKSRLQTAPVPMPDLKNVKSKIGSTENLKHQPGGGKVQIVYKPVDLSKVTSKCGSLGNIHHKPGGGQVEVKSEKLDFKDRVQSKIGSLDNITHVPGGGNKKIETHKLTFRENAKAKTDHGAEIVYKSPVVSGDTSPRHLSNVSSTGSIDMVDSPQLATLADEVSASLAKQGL

[2] = target: human Tau 410 full-length protein (3R tau), SPR construct (human, UniProt P10636-5 1-410)
Sequence of human Tau 410 full-length protein (3R tau), SPR construct (P10636 other isoform, or with tags, fused parts or gaps): as the sequence (P10636 other isoform, or with tags, fused parts or gaps P216A | P216A) above, with A216P counted along it

[3] = target: T1, human Tau 441 full-length protein (4R …); remark: listed apart in the source
Tau 410 P179A/P216A = Tau 410 P179A/P216A (human, UniProt P10636-5 1-410, P179A | P216A)
Sequence of Tau 410 P179A/P216A (P10636 other isoform, or with tags, fused parts or gaps P179A | P216A | P179A P216A): as the sequence (P10636 other isoform, or with tags, fused parts or gaps P216A | P216A) above, with P179A counted along it

Tau 410 P179A = Tau 410 P179A (human, UniProt P10636-5 1-410, P179A)
Sequence of Tau 410 P179A (P10636 other isoform, or with tags, fused parts or gaps P179A | P179A): as the sequence (P10636 other isoform, or with tags, fused parts or gaps P216A | P216A) above, with P179A, A216P counted along it

| Binder | Kd (Tau 441 P301S) [nM] | Kd [1] [nM] | Kd (Tau 410 P216A) [nM] | Kd [2] [nM] | Kd [3] [nM] | Kd (Tau 410 P179A/P216A) [nM] | Kd (Tau 410 P179A) [nM] |
| --- | --- | --- | --- | --- | --- | --- | --- |
| B1 | 46.2 | 54.7 | 445 | 76.9 | 11 | 73300 | 6340 |
| B2 | 51.5 | 42.1 | 314 | 43.3 | 12.2 | 26000 | 4820 |
